According to publication PMC5498717, “Linking functions: an additional role for an intrinsically disordered linker domain in the transcriptional coactivator CBP” (Scientific Reports, 2017):

Target: the molecule itself
Test: cross-linking; BS3 0.25 mM, 15 min at RT in PBS with 1 mM DTT, proteins mixed about 1:1; SDS-PAGE, anti-His and anti-GST Western blots

B1: ZFP106-f (residues 1265-1521 of ZFP106), His-tagged (domain or fragment, human, UniProt Q9H2Y7 1265-1521, looked up)
chain: KFSVEQRNTRNRENSPSSQSAGLSSINKEGEEPTKGNSGSEACTSSFLRLSFASETPLEKEPHSPADQPEQQAESTLTSAETRGSKKKKKLRKKKSLRAAHVPENSDTEQDVLTVKPVRKVKAGKLIKGGKVTTSTWEDSRTGREQESVRDEPDSDSSLEVLEIPNPQLEVVAIDSSESGEEKPDSPSKKDIWNSTEQNPLETSRSGCDEVSSTSEIGTRYKDGIPVSVAETQTVISSIKGSKNSSEISSEPGDDDE
notes: The His tag is named for the cross-linking and detected by anti-His blot there and in the acetylation assays; also called wt ZFP106-f; His-tagged ZFP106-f
  stoichiometry N: 2
